From the DeepSol protein solubility set

Assay: soluble on expression in E. coli; label from the status in PepcDB or PDB records

Row | Sequence | soluble on expression in E. coli
1 | MGSDKIHHHHHHMSNKLPALHLFGIFEAAARHENFKQAAAELFITPSAVSHQIKALEAFLGFELFQRKSRGVALNAAGKVYLHYVQQGINKLEQGTKIVSNKFSSPSLKISTFTTMASNVIIPTLSDFQQQHPTIDIRIETGMNLTDLRYDDCDLAIRMGKGDWPGVVVKKLLNLTAHAVCSAEFAKKHKLTSPEQISQVPLIDLANMNNIWRTWAGAMQLPEMQYQHKLTFGNYDASLQAAEQGLGLALAIMPIEHALIERNLLVLPFEKSTNFDQSLYAVYREEDQNRNDIHCFLDWLTQSPNLKPI | not soluble
2 | MAHHHHHHMKNIFKYKNRLTFFRKGFSTTNKPKVEIKKTILYDSHKKNNAIFKIQHGFYLPDEYKDITLITSNLHTRTNCSLFDYTYRPILKISGEDKINFIEKYVGSDIKGLWENECRISLLLNDKGGIIDDIMIILREKYLLLYLNIQCKEKVYKYLKDKLLENGKLQVQIEEFTSHSSICIQGSKSSDVLKELIDYNNESVETNLDNCSFMSSTLTKINKIDNCILNRYTCTGEDGFDILIPNKYVNDLYNLILKNELVKPGGLAVQNTLRLESGFCEYGKDINEDITPIESNYKWSLGQRRLKELNFNGAHIIMDQIKNGTKIKRVGILINTNIVPKENTKIYSHENAEQIIGYITSSVFSPVLQKPICMGYVKSEYAHINNLIKVDCLNKLEIAQITKLPFVPLSIYKL | not soluble
3 | LKRDFIILGNGPRLQNSTYQCKHCDSKLQSTAELTSHLNIHNEEFQKRAKRQERRKQLLSKQKYADGAFADFKQE | soluble
4 | GKNMDTSAEPADVQANVSDSSRIEQEAIGMIEDFYEAYAASFMSTGKEALALGDSIKQKFLTKELIEKVDRLIEATDADPIIRAQDLGENDMKTLSVKHLNDNWYEVNYTSAKGSQYERAVSIPVRVVNVDGQYLIDDITPEN | soluble
5 | MIDKSAFIHPTAIVEDGAVIGANAHIGPFCIVGPQVEIGEGTVLKSHVVVNGQTKIGRDNEIYQFASIGEVNQDLKYAGEPTRVEIGDRNRIRESVTIHRGTVQGGGLTKVGSDNLLMINAHVAHDCTVGNRCILANNATLAGHVSVDDFAIIGGMTAVHQFCIIGAHVMVGGCSGVAQDVPPYVIAQGNHATPFGVNIEGLKRRGFSREGLVAIRNAYKLLYRSGKTLDEAKLEIAELAEKHPEVKAFTEFFERSTRGPIR | not soluble
6 | MGSDKIHHHHHHMSIYNSIGLHYSKTRVPDIRIVNKIIDLLNLPKNSIIADIGAGTGGYSLALANKGFLVNAIEPSLVMQKQAVEHPQVKWFTGYAENLPLLDNSVDTVVSILAIHHFSHLPKAFQEMHRIIKNGAIILLTFDIRLAQKIWLYDYFPFLWEDALQFLPLNEQINLIQINTKRRVEAIPLLLPYDLSDLFAAAGWRRPELYLQAEVRAGISSLALANQDLVDQGVKLLTADLSSEKWRKQYGDIHNLTEIDIGYRFIHTTLNN | not soluble
7 | MGSDKIHHHHHHMEDIIVVENLVKKFGDFEAVKGVSFSVKKGEIFAFLGPNGAGKTTTIHMLTTLLKPTSGKAWVAGHDVLKEPREVRRKIGIVFQDQSLDRELTAYENMYIHGKIYGYGGEKLKKRILELLEFVELLEFKDKPVKTFSGGMARRLEIARSLIHEPEVLFLDEPTIGLDPHTRAHMWEYISKMKKEHNMTIFLTTHYMDEAEQLADRVAIIDHGKIIALGTPTELKRMVGKEIIYVRFSEAVECLEGDFIESCRKLPDGRLELNVEDSGRAIPKIFELAQQKGLKIEEITYHKPTLNDVFLHLTGRELREEGPENSFKTMARMRMRMRR | not soluble
8 | MGSDKIHHHHHHMRVLVKLSGEALSGEGGRGFDPERVNYIVNEIKSAIEEGFKIGIVVGAGNLFRGVELKNLTMTRADQIGLLGTVMNSVYLKDIFERSGLKARIYSQIVNLPDVERVNYDSIESALRENSILIFAGGTSNPFFTTDTAAVLRAQEMRAKLVVKATKVDGVYDKDPKKFPDAKKIPHLTFSEAMKMGLKVMDAEAFALCKKLGITVKVINFFEPGTLLKALKGEDVGSTVVPD | not soluble
